Assay results published in US20130059292A1 (APTAMER SCIENCES, published 2013).

Target: T1, epidermal growth factor receptor (EGFR) (human, UniProt P00533 25-1210)
T1 construct: Endogenous protein in A431 cell lysate; also called EGF receptor
Test: Co-AP with EGFR aptamer-magnetic agarose beads from EGF-stimulated A431 cell lysate, Western blot
Method: In order to study additional DxSO₄ effects in Co-AP assays, Co-AP experiments were performed with various DxSO₄ concentrations in a binding buffer. […] The mixed solution was washed four times with a lysis buffer. The bound complex was eluted by 20 mM EDTA in 40 mM HEPES containing 0.1M NaCl.

B1: PDK1 (enzyme, human, UniProt O15530 1-556, looked up)
chain: MARTTSQLYDAVPIQSSVVLCSCPSPSMVRTQTESSTPPGIPGGSRQGPAMDGTAAEPRPGAGSLQHAQPPPQPRKKRPEDFKFGKILGEGSFSTVVLARELATSREYAIKILEKRHIIKENKVPYVTRERDVMSRLDHPFFVKLYFTFQDDEKLYFGLSYAKNGELLKYIRKIGSFDETCTRFYTAEIVSALEYLHGKGIIHRDLKPENILLNEDMHIQITDFGTAKVLSPESKQARANSFVGTAQYVSPELLTEKSACKSSDLWALGCIIYQLVAGLPPFRAGNEYLIFQKIIKLEYDFPEKFFPKARDLVEKLLVLDATKRLGCEEMEGYGPLKAHPFFESVTWENLHQQTPPKLTAYLPAMSEDDEDCYGNYDNLLSQFGCMQVSSSSSSHSLSASDTGLPQRSGSNIEQYIHDLDSNSFELDLQFSEDEKRLLLEKQAGGNPWHQFVENNLILKMGPVDKRKGLFARRRQLLLTEGPHLYYVDPVNKVLKGEIPWSQELRPEAKNFKTFFVHTPNRTYYLMDPSGNAHKWCRKIQEVWRQRYQSHPDAAVQ
notes: also called phosphoinositide dependent kinase 1; PDPK1
- binding result: binds
